According to patent CN111320691A (CHENG LIANSHENG; LIU JING, dated 2020):

How the values were obtained:
[1] = biological target: T1, 人4-1BB on CHO-K1 cells (CHO-h4-1BB) (human, UniProt Q07011 24-255); test: FACS on CHO-h4-1BB cells, antibody 20 to 0.027 ug/ml
T1 construct: whole, on cells; also called 高表达人4-1BB的CHO-K1细胞株

[2] = biological target: T2, 人4-1BB (h4-1BB) antigen protein, coated on ELISA plates (human, UniProt Q07011 24-186); test: ELISA, antigen coated at 1 ug/ml, antibody 1000 to 0.24 ng/ml
T2 construct: Soluble antigen for plate coating; also called 人抗原4-1BB; 抗原人H4-1BB蛋白
T2 sequence (Q07011 24-186 limits assumed): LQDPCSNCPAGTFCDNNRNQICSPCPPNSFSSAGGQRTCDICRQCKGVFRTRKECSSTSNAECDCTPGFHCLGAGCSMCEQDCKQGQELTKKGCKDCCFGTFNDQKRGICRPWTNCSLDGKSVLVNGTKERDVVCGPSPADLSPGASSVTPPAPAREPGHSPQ

T1 sequence (Q07011 24-255): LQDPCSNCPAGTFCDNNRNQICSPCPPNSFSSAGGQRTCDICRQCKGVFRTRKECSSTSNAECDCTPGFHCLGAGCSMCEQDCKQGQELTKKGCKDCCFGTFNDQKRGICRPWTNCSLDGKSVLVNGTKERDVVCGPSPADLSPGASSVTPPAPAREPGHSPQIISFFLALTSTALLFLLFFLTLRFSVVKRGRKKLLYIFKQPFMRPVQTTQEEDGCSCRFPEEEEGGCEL

binding result [1]: binds
binding result [2]: binds
B1: 单克隆抗体HKB6 (抗人4-1BB抗体) (antibody, mouse IgG1, kappa, V domains shown)
VH: QVQLKESGPGLVAPSQSLSITCTVSGFSLTTYDISWIRQPPGKGLEWLGVIWTGGGTNYNSTFMSRLSINKDNSKSQVFLKMNSLQTDDTAIYYCVRVDYWGQGTSVTVSS
VL: DVVMTQTPLSLPVSLGDQASISCRSSQSLVHSNGNTYLHWFLQKPGQSPKLLIYKVSNRFPGVPDRFSGSGSGTDFTLKISRVEAEDLGVYFCSQNTHVPWTFGGGTKLEIKR
notes: Whole antibody from a mouse hybridoma, purified on Protein G; also called HKB6单克隆抗体
